Drawing on patent US20240262894A1, this text covers IC50 (ng/mL), neutralization of RSV B-type clinical isolates on Hep2 cells, flow cytometry and Kd for two substances.

The target in test [1] is F protein of RSV B-type clinical isolates (on virus) (respiratory syncytial virus B-type clinical isolates). Kind of test: cell-based or functional assay.
The target of test [2] is pre-fusion F protein DS-Cav1 of RSV A2 strain (respiratory syncytial virus A2 strain). The test is described as follows: SPR (Biacore), F protein immobilised on CM5 chip, Fab as analyte.
Test [3] has as its target post-fusion F protein (FΔFP) of RSV A2 strain (respiratory syncytial virus A2 strain) (UniProt P03420). The description is as above.

Palivizumab (antibody) gave an IC50 (ng/mL), neutralization of RSV B-type clinical isolates on Hep2 cells, flow cytometry in test [1] of 1410 ng/mL.
What is called Kd is the constant that tells how readily two partners part at equilibrium. Higher therefore signals weaker binding. Regarding Palivizumab Fab, the Kd in test [2] was 11.4 nM; in test [3] it was 4.4 nM.
